Test results as given in patent US20170151343A1 (AbbVie / Abbott, published 2017).
Changes are numbered by the printed parent chain. Names may count otherwise.

T1: human LRRC15 (leucine-rich repeat-containing protein 15), expressed on cells (human, UniProt Q8TF66 22-581)
T1 construct: Cells: U118MG (endogenous), HCT116-huLRRC15, 3T12-huLRRC15 transfectants, TGFbeta-treated A549, human BM-MSC; also called huLRRC15; endogenous huLRRC15
T1 sequence: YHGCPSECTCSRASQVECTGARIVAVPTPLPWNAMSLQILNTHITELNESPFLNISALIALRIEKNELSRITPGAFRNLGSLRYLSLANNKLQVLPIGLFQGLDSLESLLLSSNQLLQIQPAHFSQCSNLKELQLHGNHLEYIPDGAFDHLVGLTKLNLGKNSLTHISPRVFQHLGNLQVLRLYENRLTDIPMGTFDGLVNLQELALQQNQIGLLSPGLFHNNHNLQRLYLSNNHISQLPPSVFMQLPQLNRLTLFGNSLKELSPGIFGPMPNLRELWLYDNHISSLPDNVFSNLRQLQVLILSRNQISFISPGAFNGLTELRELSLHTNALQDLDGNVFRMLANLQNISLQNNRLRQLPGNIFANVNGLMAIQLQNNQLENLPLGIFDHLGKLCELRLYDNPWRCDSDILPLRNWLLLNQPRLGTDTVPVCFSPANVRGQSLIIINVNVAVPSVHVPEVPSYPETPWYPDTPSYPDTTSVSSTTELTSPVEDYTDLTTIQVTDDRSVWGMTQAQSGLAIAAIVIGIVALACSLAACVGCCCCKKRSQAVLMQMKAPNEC

T2: huLRRC15-Fc fusion protein (huLRRC15 ECD residues 22 to 526 of SEQ ID NO:3 fused to Fc) (human, UniProt Q8TF66 22-526)
T2 construct: Coated on the ELISA plate at 2 ug/mL; also called huLRRC15-ECD-Fc; huLRRC15 fusion ECD protein
T2 sequence: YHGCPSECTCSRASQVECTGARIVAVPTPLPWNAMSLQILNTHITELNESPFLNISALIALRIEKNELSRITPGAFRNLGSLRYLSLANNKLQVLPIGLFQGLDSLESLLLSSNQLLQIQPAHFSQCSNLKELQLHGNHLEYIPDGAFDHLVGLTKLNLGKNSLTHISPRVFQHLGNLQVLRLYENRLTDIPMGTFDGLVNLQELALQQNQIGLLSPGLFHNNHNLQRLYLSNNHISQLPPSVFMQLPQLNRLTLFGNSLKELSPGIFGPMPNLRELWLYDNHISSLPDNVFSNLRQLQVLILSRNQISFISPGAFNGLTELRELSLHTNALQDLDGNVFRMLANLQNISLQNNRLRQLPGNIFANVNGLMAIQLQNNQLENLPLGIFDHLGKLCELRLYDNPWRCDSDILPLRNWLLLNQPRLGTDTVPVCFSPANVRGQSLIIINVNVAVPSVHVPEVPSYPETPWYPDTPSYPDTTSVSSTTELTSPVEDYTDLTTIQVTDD

B1: huAD208.4.1 (antibody, V domains shown)
VH: EVQLVQSGAEVKKPGSSVKVSCKASGFTFTDYYIHWVKQAPGQGLEWIGLVYPYIGGTNYNQKFKGKATLTVDTSTTTAYMEMSSLRSEDTAVYYCARGDNKYDAMDYWGQGTTVTVSS
VL: DIVLTQSPDSLAVSLGERATINCRASQSVSTSSYSYMHWYQQKPGQPPKLLIKYASSLESGVPDRFSGSGSGTDFTLTISSLQAEDVAVYYCEQSWEIRTFGGGTKVEIK
notes: Humanized full-length antibody, compared with a huIgG1 isotype control
B2: huAD208.14.1 (antibody, V domains shown)
VH: B1 VH with T58S, N59S, K63Q, T77S, M83L, K102N
VL: B1 VL with N22S, S33T, S35N, I52V, S57N, E93H, Q94H, S95T
notes: Humanized full-length antibody; Compared with a huIgG1 isotype control
B3: huM25-mcMMAF-E2 (antibody, human IgG1, kappa)
heavy: not shown
light: DIQMTQSPSSLSASVGDRVTITCRASQDISNYLNWYQQKPGGAVKFLIYYTSRLHSGVPSRFSGSGSGTDYTLTISSLQPEDFATYFCQQGEALPWTFGGGTKVEIKRTVAAPSVFIFPPSDEQLKSGTASVVCLLNNFYPREAKVQWKVDNALQSGNSQESVTEQDSKDSTYSLSSTLTLSKADYEKHKVYACEVTHQGLSSPVTKSFNRGEC
modifications: mcMMAF (maleimidocaproyl monomethyl auristatin F) on cysteines of reduced interchain disulfides, two drugs per antibody (E2); which chain carries them is not stated
B4: huM25 (antibody, human IgG1, kappa)
heavy: not shown
light: B3 light
notes: Humanized IgG1 kappa; also called huM25-AF647
B5: huM25-S239C-PBD-E2 (antibody, human IgG1, kappa)
heavy: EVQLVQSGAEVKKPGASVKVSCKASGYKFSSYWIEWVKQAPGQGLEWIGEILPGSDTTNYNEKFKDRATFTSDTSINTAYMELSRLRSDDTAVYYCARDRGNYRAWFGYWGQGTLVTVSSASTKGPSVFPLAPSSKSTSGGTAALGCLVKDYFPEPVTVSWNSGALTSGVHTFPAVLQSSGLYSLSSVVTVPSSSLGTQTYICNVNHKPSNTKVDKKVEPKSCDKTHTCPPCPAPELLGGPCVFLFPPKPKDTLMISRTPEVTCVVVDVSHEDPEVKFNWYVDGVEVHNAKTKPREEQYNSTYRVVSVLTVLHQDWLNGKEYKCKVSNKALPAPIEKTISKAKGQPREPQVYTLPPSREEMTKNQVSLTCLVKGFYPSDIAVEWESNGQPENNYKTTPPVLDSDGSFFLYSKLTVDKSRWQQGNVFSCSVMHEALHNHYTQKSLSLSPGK
light: B3 light
modifications: vaPBD (Val-Ala pyrrolobenzodiazepine dimer synthon) on the engineered cysteine S239C, DAR2
B6: huM25-vcMMAE-E2 (antibody, human IgG1, kappa)
heavy: not shown
light: B3 light
modifications: vcMMAE (maleimidocaproyl-Val-Cit-PABA-monomethyl auristatin E) on cysteines of reduced interchain disulfides, two drugs per antibody (E2); which chain carries them is not stated
B7: muAD209.9.1 (antibody, V domains shown)
VH: QIQLVQSGPELKKPGETVKISCKASGFAITNFGMNWVKQAPGKGLKWMGWINLYTGEPTFADDFKGRFAFSLETSASTAYLQINNLKNEDTVIYFCARKGETYYRYDGFAYWGQGTLVTVSA
VL: DIVMTQAAPSVPVTPGESVSISCRSSKSLLHSNGNTHLYWFLQRPGQSPQLLIYRMSNLASGVPDRFSGSGSGTAFTLRISRVEAEDVGVYYCMQLLEYPYTFGGGTKLEIE
notes: Murine antibody; Compared with a muIgG2a isotype control
B8: huAD208.12.1 (antibody, V domains shown)
VH: EVQLVQSGAEVKKPGSSVKVSCKASGYTFTNYWMHWVKQAPGQGLEWIGMIHPNSGSTKHNEKFRGKATLTVDESTTTAYMELSSLRSEDTAVYYCARSDFGNYRWYFDVWGQGTTVTVSS
VL: EIVLTQSPATLSLSPGERATLSCRASQSSSNNLHWYQQKPGQAPRVLIKYVSQSISGIPARFSGSGSGTDFTLTISSLEPEDFAVYFCQQSNSWPFTFGQGTKLEIK
notes: Humanized full-length antibody
B9: hu139.10 (antibody, V domains shown)
VH: EVQLVESGGGLVQPGGSLRLSCAVSGFSLTSYGVHWVRQATGKGLEWLGVIWAGGSTNYNSALMSRLTISKENAKSSVYLQMNSLRAGDTAMYYCATHMITEDYYGMDYWGQGTTVTVSS
VL: DIVMTQSPDSLAVSLGERATINCKSSQSLLNSRTRKNYLAWYQQKPGQSPKLLIYWASTRESGVPDRFSGSGSGTDFTLTISSLQAEDVAVYYCKQSYNLPTFGGGTKVEIK
notes: as for B2
B10: muAD210.40.9 (antibody, V domains shown)
VH: QVQLQQSGAELVRPGTSVKISCKASGYDFTNYWLGWVKQRPGHGLEWIGDIYPGGGNTYYNEKLKGKATLTADKSSSTAYIHLISLTSEDSSVYFCARWGDKKGNYFAYWGQGTLVTVSA
VL: QIVLTQSPAIMSASLGERVTMTCTASSSVYSSYLHWYQQKPGSSPKLWIYSTSNLASGVPGRFSGSGSGTSYSLTISSMEAEDAATYYCHQYHRSPTFGGGTKLEIK
notes: as for B7

Tests used:
[1] = biological target: T1, human LRRC15 (leucine-rich …); assay: flow cytometry on U118MG cells
Description: Isotype control antibodies (mouse or human) were used as appropriate.

[2] = biological target: T2, huLRRC15-Fc fusion protein (huLRRC15 …); assay: ELISA on coated huLRRC15-ECD-Fc
Method: 96-well Immulon 4HBX plates (Thermo, cat. #3855) were coated with 100 μL/well of this huLRRC15 fusion ECD protein at 2 μg/mL in carbonate-bicarbonate buffer (Thermo, cat.#28382) pH 9.4 and allowed to bind overnight at 4° C. Plates were washed three times with PBST and then incubated with various concentrations of antibodies in PBST+0.3% BSA at room temperature for one hour. […] Plates were washed three times in PBST and 100 μL of TMB (Surmodics BioFx cat.# TMBW-1000-01) was added to each well and incubated at RT until color developed (approximately 10 minutes). Reactions were stopped by the addition of 650 nm Stop Reagent for TMB (Surmodics BioFx, cat.# BSTP-0100-01), and optical density (OD) was read at 650 nm (Molecular Devices Versamax PLUS).

[3] = biological target: T1, human LRRC15 (leucine-rich …); assay: cell-based or functional assay
[4] = biological target: T1, human LRRC15 (leucine-rich …); assay: flow cytometry competition on U118MG cells; unlabeled antibody titrated against muM25-AF488 at 1 ug/ml, GeoMean normalized to muM25-AF488 alone

| Binder | EC50 [1] [nM] | EC50 [2] [nM] | other results |
| --- | --- | --- | --- |
| B1 | 0.29 | 0.25 | – |
| B2 | 5.25 | 0.8 | – |
| B3 | – | – | in vitro killing of HCT116-huLRRC15 cells, EC50 [3]: 0.028 nM |
| B4 | 0.498 | 0.26 | IC50 (read off the curve) [4]: ~0.4 mg/L |
| B5 | – | – | in vitro killing of A549-EMT transformed cells treated with TGFbeta, EC50 [3]: 0.01 nM |
| B6 | – | – | in vitro killing of HCT116-huLRRC15 cells, EC50 [3]: 0.069 nM |
| B7 | 0.787 | 0.14 | – |
| B8 | – | – | binding result [1]: binds |
| B9 | 0.28 | 0.11 | – |
| B10 | 0.08 | – | – |
